Measured values as given in article PMC9554752, “Complement membrane attack complex is an immunometabolic regulator of NLRP3 activation and IL-18 secretion in human macrophages” (Frontiers in Immunology, 2022).

Target: the molecule itself
Assay: Western blot of dimer and monomer bands after SDS-PAGE; hMDMs incubated with MAC (+/- anti-C7) or 5 uM MitoPQ for 3 hours; cells treated with 80 mM MMTS for 10 min at RT before lysis; % dimer = SI dimer/(SI dimer + SI monomer) x 100, expressed relative to untreated control

B1: mitochondrial peroxiredoxin 3 (natural protein, human (endogenous in hMDMs), UniProt P30048 62-256, looked up)
chain: APAVTQHAPYFKGTAVVNGEFKDLSLDDFKGKYLVLFFYPLDFTFVCPTEIVAFSDKANEFHDVNCEVVAVSVDSHFSHLAWINTPRKNGGLGHMNIALLSDLTKQISRDYGVLLEGSGLALRGLFIIDPNGVIKHLSVNDLPVGRSVEETLRLVKAFQYVETHGEVCPANWTPDSPTIKPSPAASKEYFQKVNQ
notes: peroxiredoxin 3 (Prx3), mitochondrial, endogenous in human monocyte-derived macrophages; detected with rabbit anti-Prx3 (Abcam Ab73349); Cells were incubated in 80 mM methylmethanethiosulfonate (MMTS) for 10 min before lysis; also called Prx3; Prx; source: endogenous, hMDM (human monocyte-derived macrophage) lysate
  stoichiometry N: 2
